Measurements from patent US20190025332A1 (Novo Nordisk, published 2019).

B1: wild type human MIC-1 (ligand)
chain: ARNGDHCPLGPGRCCRLHTVRASLEDLGWADWVLSPREVQVTMCIGACPSQFRAANMHAQIKTSLHRLKPDTVPAPCCVPASYNPMVLIQKTDTGVSLQTYDDLLAKDCHCI
notes: also called wtMIC-1; hMIC-1
B2: complex of wtMIC-1 and hGFRAL(ECR)-His (other)
chain 1: B1 chain
chain 2: SQTNNCTYLREQCLRDANGCKHAWRVMEDACNDSDPGDPCKMRNSSYCNLSIQYLVESNFQFKECLCTDDFYCTVNKLLGKKCINKSDNVKEDKFKWNLTTRSHHGFKGMWSCLEVAEACVGDVVCNAQLASYLKACSANGNPCDLKQCQAAIRFFYQNIPFNIAQMLAFCDCAQSDIPCQQSKEALHSKTCAVNMVPPPTCLSVIRSCQNDELCRRHYRTFQSKCWQRVTRKCHEDENCISTLSKQDLTCSGSDDCKAAYIDILGTVLQVQCTCRTITQSEESLCKIFQHMLHRKSCFNYPTLSNVKGMALYTRKHANKITLTGFHSPFNGE
notes: Prepared by pre-incubating wtMIC-1 with hGFRAL(ECR)-His; also called wtMIC-1 + hGFRAL(ECR)-His; complex of MIC-1 and hGFRAL; not shown: His tag, not described
B3: hGFRAL_C2_Fab_HPC4 (receptor)
chain: CLEVAEACVGDVVCNAQLASYLKACSANGNPCDLKQCQAAIRFFYQNIPFNIAQMLAFCDCAQSDIPCQQSKEALHSKTCAVNMVPPPTGGGGSGGGGSDVVMTQTPLSLPVSLGDQASISCRSSQSLLHSNGNTYLHWYLQKPGQSPKLLIYKVSNRFSGVPDRFSGSGSGTDFTLKISRVEAEDLGVYFCSQSTHVPWTFGGGTKLEIKRADAAPTVSIFPPSSEQLTSGGASVVCFLNNFYPKDINVKWKIDGSERQNGVLNSWTDQDSKDSTYSMSSTLTLTKDEYERHNSYTCEATHKTSTSPIVKSFNRNEC
heavy: EVQIQESGPSLVKPSQTLSLTCSVSGDSITSGYWNWIRKFPGHKIEYMGTISYSGDTYYNPSLKSRISITRDTSKNQYYLHLNSVTTEDTATYYCARYGSYVFDYWGQGTTLTVSSAKTTPPSVYPLAPGSAAQTNSMVTLGCLVKGYFPEPVTVTWNSGSLSSGVHTFPAVLQSDLYTLSSSVTVPSSTWPSETVTCNVAHPASSTKVDKKIVPRDCGGGGSEDQVDPRLIDGK
notes: C2 = amino acid 131-219 of UniProt Q6UXV0

What was measured:
VISTA-Fc [1] = target: T1, VISTA-Fc; experiment: SPR; analyte 12 nM over immobilised VISTA-Fc (Ctrl-Fc)
T1 construct: Negative control ligand immobilised on the chip; also called Ctrl-Fc
Method: (§1) hRet and complex of hGFRAL and MIC-1 interactions were assessed by SPR-based binding assay. A Biacore® 4000 (GE Healthcare, Piscataway, N.J., USA) instrument was used. The assays were performed at 25° C. at flow rates of 30 μL/minute in 1× HBS-P running buffer (BR-1006-71, GE Healthcare, Piscataway, N.J., USA). hRet(ECR)-Fc was immobilized through Fc as ligand on the chip. VISTA-Fc was immobilized as negative control ligand. The complex of MIC-1 and hGFRAL was prepared by pre-incubating wtMIC-1 with hGFRAL(ECR)-His. wtMIC-1, hGFRAL(ECR)-His, complex of wtMIC-1 and Ctrl-His, and complex of wtMIC-1 and hGFRAL(ECR)-His at various concentration were run as flow-through analyte.

VISTA-Fc [2] = target: T1, VISTA-Fc; experiment: SPR; analyte 37 nM over immobilised VISTA-Fc (Ctrl-Fc)
Method: as §1
(§2) Thus, it can be concluded that that hRet binds to hGFRAL in the presence of MIC-1; and Ret, MIC-1 and GFRAL forms a ternary complex.

hRET(ECR)-hIgG1.1_Fc [3] = target: T2, hRET(ECR)-hIgG1.1_Fc (human); experiment: SPR; analyte 12 nM over immobilised hRet(ECR)-Fc
T2 construct: also called hRET(ECR)-Fc; hRet(ECR)-Fc
Method: as §1, §2

VISTA-Fc [4] = target: T1, VISTA-Fc; experiment: SPR; analyte 0 nM over immobilised VISTA-Fc (Ctrl-Fc)
Method: as §1, §2

hRET(ECR)-hIgG1.1_Fc [5] = target: T2, hRET(ECR)-hIgG1.1_Fc; experiment: SPR; analyte 333 nM over immobilised hRet(ECR)-Fc
Method: as §1, §2

[6] = target: T3, full length hGFRAL and full length hRET51 co-expressed on cells (human, UniProt Q6UXV0 19-394; P07949 29-1114); experiment: binding to BHK21-hGFRAL-IRES-hRET stable cells, median fluorescence intensity
T3 construct: Two receptors on the same cells (PC12, HEK293 or BHK21); written as one target since the read-outs are of cells that carry both; also called hGFRAL/hRET51 co-transfected; hGFRAL(FL) and hRET51(FL)

VISTA-Fc [7] = target: T1, VISTA-Fc; experiment: SPR; analyte 333 nM over immobilised VISTA-Fc (Ctrl-Fc)
Method: as §1, §2

VISTA-Fc [8] = target: T1, VISTA-Fc; experiment: SPR; analyte 1000 nM over immobilised VISTA-Fc (Ctrl-Fc)
Method: as §1, §2

hRET(ECR)-hIgG1.1_Fc [9] = target: T2, hRET(ECR)-hIgG1.1_Fc; experiment: SPR; analyte 37 nM over immobilised hRet(ECR)-Fc
Method: as §1, §2

VISTA-Fc [10] = target: T1, VISTA-Fc; experiment: SPR; analyte 111 nM over immobilised VISTA-Fc (Ctrl-Fc)
Method: as §1, §2

hRET(ECR)-hIgG1.1_Fc [11] = target: T2, hRET(ECR)-hIgG1.1_Fc; experiment: SPR; analyte 1000 nM over immobilised hRet(ECR)-Fc
Method: as §1, §2

hRET(ECR)-hIgG1.1_Fc [12] = target: T2, hRET(ECR)-hIgG1.1_Fc; experiment: SPR; analyte 111 nM over immobilised hRet(ECR)-Fc
Method: as §1, §2

hRET(ECR)-hIgG1.1_Fc [13] = target: T2, hRET(ECR)-hIgG1.1_Fc; experiment: SPR; analyte 0 nM over immobilised hRet(ECR)-Fc
Method: as §1, §2

[14] = target: T3, full length hGFRAL and full length …; experiment: cell-based or functional assay
[15] = target: T3, full length hGFRAL and full length …; experiment: cell-based or functional assay; remark: listed apart in the source
[16] = target: full length hGFRAL and full length hRET9 co-expressed on HEK293 cells (human, UniProt Q6UXV0 19-394; P07949 29-1063); experiment: cell-based or functional assay
[17] = target: full length hGFRAL and full length hRET43 co-expressed on HEK293 cells (human, UniProt Q6UXV0 19-394; P07949 29-1062); experiment: cell-based or functional assay
wild type human MIC-1 = target: B1; experiment: SPR; GFRAL fragment as analyte over immobilised wtMIC-1; relative to hGFRAL(ECR) set as 100%
Method: MIC-1 interactions with soluble GFRAL fragments were assessed by SPR-based binding assay. A Biacore® 4000 (GE Healthcare, Piscataway, N.J., USA) instrument was used for SPR-based binding assay. The assays were performed at 25° C. at flow rates of 30 μL/minute in 1× HBS-P running buffer (BR-1006-71, GE Healthcare, Piscataway, N.J., USA). Purified GFRAL fragments at various concentrations were run as flow-through analyte and wtMIC-1 was immobilized as ligand. Please see FIG. 6 and Table 5.

T3 sequence (P07949 29-1114, one chain of several): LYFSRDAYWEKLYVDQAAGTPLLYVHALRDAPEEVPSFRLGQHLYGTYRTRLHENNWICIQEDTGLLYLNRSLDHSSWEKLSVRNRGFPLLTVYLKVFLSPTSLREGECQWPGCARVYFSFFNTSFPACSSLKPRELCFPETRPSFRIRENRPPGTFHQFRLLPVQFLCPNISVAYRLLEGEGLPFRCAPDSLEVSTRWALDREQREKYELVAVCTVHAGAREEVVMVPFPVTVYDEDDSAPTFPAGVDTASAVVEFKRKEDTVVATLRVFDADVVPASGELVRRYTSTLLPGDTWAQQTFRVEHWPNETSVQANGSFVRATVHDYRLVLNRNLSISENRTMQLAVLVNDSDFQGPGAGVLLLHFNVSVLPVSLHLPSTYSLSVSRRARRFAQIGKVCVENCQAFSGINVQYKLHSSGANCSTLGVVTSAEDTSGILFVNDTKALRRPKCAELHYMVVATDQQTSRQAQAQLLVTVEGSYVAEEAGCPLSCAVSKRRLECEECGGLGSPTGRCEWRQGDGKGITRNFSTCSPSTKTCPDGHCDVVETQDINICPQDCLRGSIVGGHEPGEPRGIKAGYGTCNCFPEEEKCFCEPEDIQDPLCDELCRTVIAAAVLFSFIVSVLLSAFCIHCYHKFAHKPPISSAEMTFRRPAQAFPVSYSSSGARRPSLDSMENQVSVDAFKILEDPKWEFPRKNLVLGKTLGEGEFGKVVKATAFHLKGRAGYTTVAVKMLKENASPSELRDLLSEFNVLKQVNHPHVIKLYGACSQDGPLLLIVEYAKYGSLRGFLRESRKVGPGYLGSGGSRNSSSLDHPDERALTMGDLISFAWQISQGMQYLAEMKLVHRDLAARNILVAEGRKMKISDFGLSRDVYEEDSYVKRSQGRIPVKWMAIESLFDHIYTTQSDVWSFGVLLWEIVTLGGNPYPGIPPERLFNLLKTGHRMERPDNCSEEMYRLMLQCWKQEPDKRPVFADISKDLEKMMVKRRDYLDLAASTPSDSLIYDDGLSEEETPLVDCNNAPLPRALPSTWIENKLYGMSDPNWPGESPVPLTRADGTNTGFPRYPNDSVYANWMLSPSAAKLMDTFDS
Sequence of full length hGFRAL and full length hRET43 co-expressed on HEK293 cells (P07949 other isoform, or with tags, fused parts or gaps limits assumed): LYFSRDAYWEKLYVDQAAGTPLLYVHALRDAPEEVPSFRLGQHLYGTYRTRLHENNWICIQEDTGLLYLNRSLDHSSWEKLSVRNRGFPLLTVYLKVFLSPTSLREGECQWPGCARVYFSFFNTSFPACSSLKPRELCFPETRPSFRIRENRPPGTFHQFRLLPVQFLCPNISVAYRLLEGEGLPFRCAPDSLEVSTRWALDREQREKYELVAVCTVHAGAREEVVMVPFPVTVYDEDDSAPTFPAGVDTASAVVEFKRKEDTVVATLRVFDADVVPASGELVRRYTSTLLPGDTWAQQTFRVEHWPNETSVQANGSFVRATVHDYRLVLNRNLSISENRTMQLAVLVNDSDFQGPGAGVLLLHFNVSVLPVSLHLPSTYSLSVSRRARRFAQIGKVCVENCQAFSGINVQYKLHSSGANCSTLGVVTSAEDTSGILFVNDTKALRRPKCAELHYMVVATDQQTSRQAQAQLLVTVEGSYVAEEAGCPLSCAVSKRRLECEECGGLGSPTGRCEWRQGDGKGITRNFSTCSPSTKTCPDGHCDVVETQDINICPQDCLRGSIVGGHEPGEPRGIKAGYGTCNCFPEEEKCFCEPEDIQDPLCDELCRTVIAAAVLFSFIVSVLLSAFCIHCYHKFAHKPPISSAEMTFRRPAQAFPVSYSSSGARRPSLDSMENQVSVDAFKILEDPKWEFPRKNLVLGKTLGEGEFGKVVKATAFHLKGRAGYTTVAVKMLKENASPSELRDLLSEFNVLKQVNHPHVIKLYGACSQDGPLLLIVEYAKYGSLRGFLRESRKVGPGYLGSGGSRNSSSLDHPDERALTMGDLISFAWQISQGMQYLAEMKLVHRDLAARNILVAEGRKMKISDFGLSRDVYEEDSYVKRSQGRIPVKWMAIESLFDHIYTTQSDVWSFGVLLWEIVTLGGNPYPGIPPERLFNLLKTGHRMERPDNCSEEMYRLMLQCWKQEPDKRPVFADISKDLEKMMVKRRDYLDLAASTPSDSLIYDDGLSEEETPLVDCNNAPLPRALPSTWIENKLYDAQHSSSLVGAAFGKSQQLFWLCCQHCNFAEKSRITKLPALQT
T2 sequence (chain, as listed by the source limits assumed): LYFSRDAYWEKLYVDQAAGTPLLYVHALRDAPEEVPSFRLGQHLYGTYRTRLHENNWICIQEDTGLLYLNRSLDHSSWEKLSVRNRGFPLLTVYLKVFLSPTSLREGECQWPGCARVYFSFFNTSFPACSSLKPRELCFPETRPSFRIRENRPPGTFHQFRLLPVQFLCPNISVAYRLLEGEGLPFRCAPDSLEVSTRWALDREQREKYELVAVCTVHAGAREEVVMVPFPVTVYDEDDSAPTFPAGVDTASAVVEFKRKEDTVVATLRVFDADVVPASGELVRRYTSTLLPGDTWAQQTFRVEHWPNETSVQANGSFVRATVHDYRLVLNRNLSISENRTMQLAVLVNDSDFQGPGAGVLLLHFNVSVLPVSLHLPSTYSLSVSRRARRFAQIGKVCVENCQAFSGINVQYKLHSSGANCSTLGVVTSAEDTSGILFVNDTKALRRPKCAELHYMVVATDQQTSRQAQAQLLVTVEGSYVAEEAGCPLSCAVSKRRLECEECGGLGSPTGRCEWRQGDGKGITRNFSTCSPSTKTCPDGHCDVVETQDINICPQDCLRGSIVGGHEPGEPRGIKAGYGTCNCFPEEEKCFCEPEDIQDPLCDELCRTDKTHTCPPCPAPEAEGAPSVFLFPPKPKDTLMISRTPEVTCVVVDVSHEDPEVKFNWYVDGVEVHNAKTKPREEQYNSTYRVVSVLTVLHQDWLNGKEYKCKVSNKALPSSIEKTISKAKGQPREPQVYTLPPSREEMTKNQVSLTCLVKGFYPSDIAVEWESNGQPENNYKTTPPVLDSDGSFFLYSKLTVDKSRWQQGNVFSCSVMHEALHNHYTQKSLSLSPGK
Sequence of full length hGFRAL and full length hRET9 co-expressed on HEK293 cells (P07949 other isoform, or with tags, fused parts or gaps limits assumed): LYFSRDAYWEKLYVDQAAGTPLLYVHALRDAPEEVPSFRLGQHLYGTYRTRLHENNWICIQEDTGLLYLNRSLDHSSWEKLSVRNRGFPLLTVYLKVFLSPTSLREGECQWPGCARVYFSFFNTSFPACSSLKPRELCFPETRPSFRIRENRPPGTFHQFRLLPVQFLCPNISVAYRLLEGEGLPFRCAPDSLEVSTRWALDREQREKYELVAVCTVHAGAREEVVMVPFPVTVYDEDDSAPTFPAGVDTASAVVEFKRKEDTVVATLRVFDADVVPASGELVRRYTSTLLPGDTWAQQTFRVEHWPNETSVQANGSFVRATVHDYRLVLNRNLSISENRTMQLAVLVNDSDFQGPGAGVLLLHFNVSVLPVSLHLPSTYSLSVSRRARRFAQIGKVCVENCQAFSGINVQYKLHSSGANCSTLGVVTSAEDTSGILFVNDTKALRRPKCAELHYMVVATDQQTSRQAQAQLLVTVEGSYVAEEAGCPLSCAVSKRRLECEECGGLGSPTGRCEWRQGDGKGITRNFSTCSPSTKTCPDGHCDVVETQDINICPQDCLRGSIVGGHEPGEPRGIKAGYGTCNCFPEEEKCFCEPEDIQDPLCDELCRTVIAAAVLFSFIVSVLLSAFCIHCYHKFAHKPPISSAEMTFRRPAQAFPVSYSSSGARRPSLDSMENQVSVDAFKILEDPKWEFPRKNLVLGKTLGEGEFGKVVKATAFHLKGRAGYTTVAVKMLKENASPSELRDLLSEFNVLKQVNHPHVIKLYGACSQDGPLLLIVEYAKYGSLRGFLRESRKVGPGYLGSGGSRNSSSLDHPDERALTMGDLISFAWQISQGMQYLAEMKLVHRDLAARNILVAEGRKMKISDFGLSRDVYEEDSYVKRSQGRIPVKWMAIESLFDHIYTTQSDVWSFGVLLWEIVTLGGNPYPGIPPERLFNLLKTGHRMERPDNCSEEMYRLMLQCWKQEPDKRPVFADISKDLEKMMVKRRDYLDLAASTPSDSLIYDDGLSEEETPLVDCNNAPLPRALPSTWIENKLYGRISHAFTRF

Binder: B1
Response (RU) (VISTA-Fc [1]): -0.245 RU
Response (RU) (VISTA-Fc [2]): -0.0179 RU
Response (RU) (hRET(ECR)-hIgG1.1_Fc [3]): 0.184 RU
Response (RU) (VISTA-Fc [4]): 0 RU
Response (RU) (hRET(ECR)-hIgG1.1_Fc [5]): 0.88 RU
EC50 [6]: 1.3 nM
Response (RU) (VISTA-Fc [7]): 0.226 RU
Response (RU) (VISTA-Fc [8]): -0.515 RU
Response (RU) (hRET(ECR)-hIgG1.1_Fc [9]): 0.467 RU
Response (RU) (VISTA-Fc [10]): 0.362 RU
Response (RU) (hRET(ECR)-hIgG1.1_Fc [11]): 0.527 RU
Response (RU) (hRET(ECR)-hIgG1.1_Fc [12]): 0.484 RU
Response (RU) (hRET(ECR)-hIgG1.1_Fc [13]): 0 RU
EC50 of ERK1/2 phosphorylation; hGFRAL and hRET51 co-transfected PC12 cells [14]: ~0.2 nM
pERK1/2 (Evision Unit); HEK293 cells; wtMIC-1 0.001000 nM [15]: 1 Evision Unit
pERK1/2 (Evision Unit); HEK293 cells; wtMIC-1 0.030483 nM [15]: 1.02 Evision Unit
pERK1/2 (Evision Unit); HEK293 cells; wtMIC-1 0.091449 nM [15]: 0.969 Evision Unit
pERK1/2 (Evision Unit); HEK293 cells; wtMIC-1 0.274348 nM [15]: 1.13 Evision Unit
pERK1/2 (Evision Unit); HEK293 cells; wtMIC-1 0.823045 nM [15]: 1.4 Evision Unit
pERK1/2 (Evision Unit); HEK293 cells; wtMIC-1 2.469136 nM [15]: 1.69 Evision Unit
pERK1/2 (Evision Unit); HEK293 cells; wtMIC-1 7.407407 nM [15]: 1.7 Evision Unit
pERK1/2 (Evision Unit); HEK293 cells; wtMIC-1 22.222220 nM [15]: 1.73 Evision Unit
pERK1/2 (Evision Unit); HEK293 cells; wtMIC-1 66.666670 nM [15]: 1.74 Evision Unit
pERK1/2 (Evision Unit); HEK293 cells; wtMIC-1 0.001000 nM [16]: 1 Evision Unit
pERK1/2 (Evision Unit); HEK293 cells; wtMIC-1 0.030483 nM [16]: 1.07 Evision Unit
pERK1/2 (Evision Unit); HEK293 cells; wtMIC-1 0.091449 nM [16]: 0.988 Evision Unit
pERK1/2 (Evision Unit); HEK293 cells; wtMIC-1 0.274348 nM [16]: 1.07 Evision Unit
pERK1/2 (Evision Unit); HEK293 cells; wtMIC-1 0.823045 nM [16]: 1.17 Evision Unit
pERK1/2 (Evision Unit); HEK293 cells; wtMIC-1 2.469136 nM [16]: 1.24 Evision Unit
pERK1/2 (Evision Unit); HEK293 cells; wtMIC-1 7.407407 nM [16]: 1.3 Evision Unit
pERK1/2 (Evision Unit); HEK293 cells; wtMIC-1 22.222220 nM [16]: 1.26 Evision Unit
pERK1/2 (Evision Unit); HEK293 cells; wtMIC-1 66.666670 nM [16]: 1.32 Evision Unit
pERK1/2 (Evision Unit); HEK293 cells; wtMIC-1 0.001000 nM [17]: 1 Evision Unit
pERK1/2 (Evision Unit); HEK293 cells; wtMIC-1 0.030483 nM [17]: 1.03 Evision Unit
pERK1/2 (Evision Unit); HEK293 cells; wtMIC-1 0.091449 nM [17]: 1.01 Evision Unit
pERK1/2 (Evision Unit); HEK293 cells; wtMIC-1 0.274348 nM [17]: 1.05 Evision Unit
pERK1/2 (Evision Unit); HEK293 cells; wtMIC-1 0.823045 nM [17]: 1.09 Evision Unit
pERK1/2 (Evision Unit); HEK293 cells; wtMIC-1 2.469136 nM [17]: 1.07 Evision Unit
pERK1/2 (Evision Unit); HEK293 cells; wtMIC-1 7.407407 nM [17]: 1.14 Evision Unit
pERK1/2 (Evision Unit); HEK293 cells; wtMIC-1 22.222220 nM [17]: 1.11 Evision Unit
pERK1/2 (Evision Unit); HEK293 cells; wtMIC-1 66.666670 nM [17]: 1.16 Evision Unit

Binder: B2
Response (RU) (VISTA-Fc [1]): -1.39 RU
Response (RU) (VISTA-Fc [2]): -1.48 RU
Response (RU) (hRET(ECR)-hIgG1.1_Fc [3]): 0.226 RU
Response (RU) (VISTA-Fc [4]): 0 RU
Response (RU) (hRET(ECR)-hIgG1.1_Fc [5]): 8.32 RU
Response (RU) (VISTA-Fc [7]): -1.43 RU
Response (RU) (VISTA-Fc [8]): -1.4 RU
Response (RU) (hRET(ECR)-hIgG1.1_Fc [9]): 1.97 RU
Response (RU) (VISTA-Fc [10]): -1.02 RU
Response (RU) (hRET(ECR)-hIgG1.1_Fc [11]): 10.7 RU
Response (RU) (hRET(ECR)-hIgG1.1_Fc [12]): 5.48 RU
Response (RU) (hRET(ECR)-hIgG1.1_Fc [13]): 0 RU

Binder: B3
% of Binding (wild type human MIC-1): 21%
